Data on 2 molecules can be found in article PMC7017467, “Enhancement of bleomycin production in Streptomyces verticillus through global metabolic regulation of N-acetylglucosamine and assisted metabolic profiling analysis”.

The data set has as its target T1, DasR (Streptomyces verticillus ATCC 15003, UniProt A0A7M1Y6D7 1-256).
T1 sequence: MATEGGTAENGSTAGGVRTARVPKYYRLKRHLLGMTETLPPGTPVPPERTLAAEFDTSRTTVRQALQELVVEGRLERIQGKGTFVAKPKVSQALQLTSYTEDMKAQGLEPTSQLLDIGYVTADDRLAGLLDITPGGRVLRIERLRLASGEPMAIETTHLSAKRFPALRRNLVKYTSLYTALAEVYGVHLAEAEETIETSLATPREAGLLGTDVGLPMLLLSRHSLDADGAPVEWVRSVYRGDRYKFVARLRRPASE
Put plainly: EMSA; EMSA buffer (composition, pH and temperature not given), 30 min incubation, 6% native polyacrylamide gel. To be noted: protein: recombinant, tags: C-terminal 6xHis (introduced by reverse primer), chain copies: 2, blunt. On the technique in general: Mobility shift assays separate free from complexed probe on a gel.

B1: PBlmR (dsDNA)
DNA 1: GAGAGCACTGTAAGCCCGAACCCGCAAGGATGACGAATTGCAAAATTGTGCAAGTCGCTACATGATGGTCCGGCTGTGCCCGCAGGTAGCCGCGGGCACAGCACCAGACGCTGCCTCCGCGCACCGCGCGGGAGGCCCGGTGAGGCGAGAGGCTGAGGTTCC
DNA 2: GGAACCTCAGCCTCTCGCCTCACCGGGCCTCCCGCGCGGTGCGCGGAGGCAGCGTCTGGTGCTGTGCCCGCGGCTACCTGCGGGCACAGCCGGACCATCATGTAGCGACTTGCACAATTTTGCAATTCGTCATCCTTGCGGGTTCGGGCTTACAGTGCTCTC
With B1, the binding result was “no binding”.

B2: PDasA (dsDNA)
DNA 1: CCAAAAGGTCTAGGCCAAGCTGCGGGCACTGGTCTAAACCATTAAAGACCACTTTTCGGTCCTGAGGAGA
DNA 2: TCTCCTCAGGACCGAAAAGTGGTCTTTAATGGTTTAGACCAGTGCCCGCAGCTTGGCCTAGACCTTTTGG
On to B2, for which the binding result (label: 5'-Cy5) was “binds”.
